From publication doi:10.1101/2021.03.15.435440 (bioRxiv, 2021) come the findings set out here.

Substitutions are numbered along the chain they refer to. Like-named read-outs stand apart in the source and are kept apart here.

For experiment [1], the target named is T1, wildtype SARS-2 RBD (SARS-CoV-2, GenBank MN975262.1 …, UniProt A0A679G9E9).
The target of experiment [2] is T1, wildtype SARS-2 RBD. Briefly: BLI. On the technique in general: In BLI a coated tip is dipped into the sample, and binding shifts an interference pattern.

B1: Ab15 (antibody, V domains shown)
VH: EVQLQQSGPELVKPGASVKISCKASGYSFTGYYMNWVKQSPEKSLEWIGEINPNFGGTTYNQKFKAKATLTVDKSSSTAYMQLKSLTSEDSAVYYCARYYGNLYAMDYWGQGTSVTVS
VL: DILMTQSPSSMSVSLGDTVSITCHASQGISSNIGWLQQKPGKSFKGLIYHGTNLEDGVPSRFSGSGSGAAYSLTISSLESEDFADYYCVQYTHFPYTFGGGTKLEIK
Turning to B1, in the experiment with wildtype SARS-2 RBD [1], the binding result is reported as “binds”.

B2: Ab16 Fab (Fab, V domains shown)
VH: B1 VH with T30N, G31N, F55S, G57Y, T59S, K65R, S77T, Y100F, Y104F, Y108F
VL: B1 VL with S30G, H50L, A70D, T92V, H93Q
Turning to B2, the binding result with wildtype SARS-2 RBD [2] was “binds”.

B3: Ab20 (antibody, V domains shown)
VH: EVQLQQSGPELVKPGASVKISCKASGFSFTGYSMNWMKQSPEKSLEWIGEINPTTGGTTYNQKFKAKATLTVDKSSSTAYIQLKSLTSEDSAVYYCARGRADYWGQGTTLTVSS
VL: DIVLTQSPASLAVSLGQRATISCRASESVEYYGTGLVQWFQQKPGQPPKLLIYAASNVESGVPARFSGSGSGTDFSLNIHSVEEDDIAMYFCHQSRKLPWTFGGGTKLEIK
As for B3, in the experiment with wildtype SARS-2 RBD [1], the binding result was “binds”.

B4: Ab19 (antibody, V domains shown)
VH: QVQLQQSGAELARPGASVKLSCKASGYPFTSYGINWVKQRTGQGLEWIGEIYPRIGNTYYNEKFKGKATLTADKSSSTAYMEFRSLTSEDSAVYFCARSWNSNYGEYYFDYWGQGTTLTVS
VL: DIVMTQSHKFMSTSIGDRVSITCKASHDVSTAVAWYQQKPGQSPKLLIYWASTRHTGVPDRFTGSGSGTDYTLTIRSVQAEDLALYYCQQHYSTPYTFGGGTKLEIK
As to B4, the binding result with wildtype SARS-2 RBD [1] is recorded as “binds”.
